The results in this text go back to publication PMC10012886.

Several values for one entry are separate records, joined by “and”; a condition that tells them apart may be missing. Identical values can stand only once.

The target in assay [1] is human PD-1 and CTLA-4 mixture (mol/mol: 1/1) immobilized on AMC sensors (human). The assay can be described thus: BLI. For orientation: BLI is a label-free optical method that tracks binding on a fibre tip over time.
In assay [2] the target is fusion protein of human Fc with human PD-1 extracellular domain (PD1-hFc) (human) (UniProt Q15116). The assay can be described thus: ELISA. Background: An ELISA detects its analyte on a solid surface through an enzyme-linked reagent.
Assay [3] addresses fusion protein of mouse Fc with human PD-1 extracellular domain (PD1-mFc) (Homo sapiens (Human).) (UniProt Q15116). The assay can be described thus: ELISA.
Assay [4] deals with human CTLA-4 on 293 T-CTLA4 cells (human) (UniProt P16410). In words: flow cytometry on cells.
Assay [5] deals with human PD-1 on 293 T-PD1 cells (human) (UniProt Q15116). In words: flow cytometry on cells. For orientation: A flow cytometer gives signals particle by particle.
For assay [6], the target named is FcγRIIIa_F158 (FcγRIIIa 158 F alleles) (UniProt P08637). In words: BLI.
The target in assay [7] is FcγRIIIa_V158 (FcγRIIIa 158 V alleles). The assay can be described thus: BLI.
For a further assay, the target named is FcγRIa (UniProt P12314). In words: BLI.
A further assay addresses Cadonilimab (hG1WT). In words: BLI.

Chain of UniProt P08637 (P08637 17-254): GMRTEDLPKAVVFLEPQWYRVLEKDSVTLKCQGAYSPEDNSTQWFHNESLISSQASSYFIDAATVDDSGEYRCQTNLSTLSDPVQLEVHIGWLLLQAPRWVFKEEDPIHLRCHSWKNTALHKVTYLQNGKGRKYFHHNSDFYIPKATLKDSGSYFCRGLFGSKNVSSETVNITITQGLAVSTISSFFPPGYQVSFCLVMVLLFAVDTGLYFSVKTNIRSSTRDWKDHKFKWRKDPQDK
Chain of UniProt P12314 (P12314 16-374): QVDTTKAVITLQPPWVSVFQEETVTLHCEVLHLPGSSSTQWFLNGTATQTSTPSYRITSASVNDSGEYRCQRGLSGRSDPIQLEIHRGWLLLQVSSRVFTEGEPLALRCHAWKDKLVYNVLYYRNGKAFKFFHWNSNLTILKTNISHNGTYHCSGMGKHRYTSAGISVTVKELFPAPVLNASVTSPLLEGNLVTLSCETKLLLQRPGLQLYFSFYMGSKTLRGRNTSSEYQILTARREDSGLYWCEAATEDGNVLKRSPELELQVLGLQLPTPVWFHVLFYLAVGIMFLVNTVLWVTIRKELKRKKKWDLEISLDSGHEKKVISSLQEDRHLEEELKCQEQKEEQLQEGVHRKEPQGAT
Chain of UniProt P16410 (P16410 36-223): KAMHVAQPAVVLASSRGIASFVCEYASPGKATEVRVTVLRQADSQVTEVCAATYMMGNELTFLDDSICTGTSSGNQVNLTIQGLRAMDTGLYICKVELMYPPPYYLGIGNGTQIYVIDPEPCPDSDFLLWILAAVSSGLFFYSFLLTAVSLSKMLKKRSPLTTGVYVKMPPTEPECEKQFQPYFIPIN

Regarding Cadonilimab (bispecific antibody), the fold higher binding avidity than with low-density PD-1 in assay [1] was 10 fold. Also, the EC50 (commonly the concentration needed to bring the measured effect to its halfway point) in [2] is 0.792 nM and 1.43 nM; in assay [3] it was 0.051 nM; in assay [4], 3.93 nM and 3.09 nM; in [5] it was 1.81 nM and 2.62 nM.
Consider “Cadonilimab (hG1WT) (bispecific antibody)”, for which, in assay [6], the Kd (as a rule, the concentration at which binding is half-saturated) was 221 nM; the koff (commonly the rate constant with which the complex falls apart) came out at 0.0247 s⁻¹; the kon – broadly, the rate constant with which the complex forms – turned out to be 112000 M⁻¹ s⁻¹. In assay [7], the Kd was 177 nM, the koff came out at 0.0214 s⁻¹ and the kon is 121000 M⁻¹ s⁻¹. In the assay with FcγRIa, this substance had a dissociation constant Kd of 5.92 nM, a koff of 0.00181 s⁻¹ and a kon of 306000 M⁻¹ s⁻¹.
In the assay with Cadonilimab (hG1WT), C1q (complex) came in with a Kd of 2.53 nM, a koff of 0.00517 s⁻¹ and a kon of 2.05e+06 M⁻¹ s⁻¹.
